Common to all, as to experiment: cell-based or functional assay
Test [1] addresses Shank3-nanoluc-alfa-tag-fusion (Homo sapiens (Human), UniProt Q9BYB0 76-1806).
Test [2] concerns the target T1, PCBD1-nanoluc-alfa-tag-fusion.
T1 chain: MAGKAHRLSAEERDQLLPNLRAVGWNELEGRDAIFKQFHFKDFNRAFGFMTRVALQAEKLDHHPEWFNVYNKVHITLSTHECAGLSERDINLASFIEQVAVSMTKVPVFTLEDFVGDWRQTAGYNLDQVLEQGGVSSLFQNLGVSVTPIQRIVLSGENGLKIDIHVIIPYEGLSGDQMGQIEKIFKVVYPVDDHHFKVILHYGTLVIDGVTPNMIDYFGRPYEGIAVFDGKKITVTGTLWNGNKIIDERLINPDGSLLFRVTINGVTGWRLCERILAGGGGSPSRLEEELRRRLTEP

The target of test [3] is T2, SYNGAP1-nanoluc-alfa-tag-fusion.
T2 chain: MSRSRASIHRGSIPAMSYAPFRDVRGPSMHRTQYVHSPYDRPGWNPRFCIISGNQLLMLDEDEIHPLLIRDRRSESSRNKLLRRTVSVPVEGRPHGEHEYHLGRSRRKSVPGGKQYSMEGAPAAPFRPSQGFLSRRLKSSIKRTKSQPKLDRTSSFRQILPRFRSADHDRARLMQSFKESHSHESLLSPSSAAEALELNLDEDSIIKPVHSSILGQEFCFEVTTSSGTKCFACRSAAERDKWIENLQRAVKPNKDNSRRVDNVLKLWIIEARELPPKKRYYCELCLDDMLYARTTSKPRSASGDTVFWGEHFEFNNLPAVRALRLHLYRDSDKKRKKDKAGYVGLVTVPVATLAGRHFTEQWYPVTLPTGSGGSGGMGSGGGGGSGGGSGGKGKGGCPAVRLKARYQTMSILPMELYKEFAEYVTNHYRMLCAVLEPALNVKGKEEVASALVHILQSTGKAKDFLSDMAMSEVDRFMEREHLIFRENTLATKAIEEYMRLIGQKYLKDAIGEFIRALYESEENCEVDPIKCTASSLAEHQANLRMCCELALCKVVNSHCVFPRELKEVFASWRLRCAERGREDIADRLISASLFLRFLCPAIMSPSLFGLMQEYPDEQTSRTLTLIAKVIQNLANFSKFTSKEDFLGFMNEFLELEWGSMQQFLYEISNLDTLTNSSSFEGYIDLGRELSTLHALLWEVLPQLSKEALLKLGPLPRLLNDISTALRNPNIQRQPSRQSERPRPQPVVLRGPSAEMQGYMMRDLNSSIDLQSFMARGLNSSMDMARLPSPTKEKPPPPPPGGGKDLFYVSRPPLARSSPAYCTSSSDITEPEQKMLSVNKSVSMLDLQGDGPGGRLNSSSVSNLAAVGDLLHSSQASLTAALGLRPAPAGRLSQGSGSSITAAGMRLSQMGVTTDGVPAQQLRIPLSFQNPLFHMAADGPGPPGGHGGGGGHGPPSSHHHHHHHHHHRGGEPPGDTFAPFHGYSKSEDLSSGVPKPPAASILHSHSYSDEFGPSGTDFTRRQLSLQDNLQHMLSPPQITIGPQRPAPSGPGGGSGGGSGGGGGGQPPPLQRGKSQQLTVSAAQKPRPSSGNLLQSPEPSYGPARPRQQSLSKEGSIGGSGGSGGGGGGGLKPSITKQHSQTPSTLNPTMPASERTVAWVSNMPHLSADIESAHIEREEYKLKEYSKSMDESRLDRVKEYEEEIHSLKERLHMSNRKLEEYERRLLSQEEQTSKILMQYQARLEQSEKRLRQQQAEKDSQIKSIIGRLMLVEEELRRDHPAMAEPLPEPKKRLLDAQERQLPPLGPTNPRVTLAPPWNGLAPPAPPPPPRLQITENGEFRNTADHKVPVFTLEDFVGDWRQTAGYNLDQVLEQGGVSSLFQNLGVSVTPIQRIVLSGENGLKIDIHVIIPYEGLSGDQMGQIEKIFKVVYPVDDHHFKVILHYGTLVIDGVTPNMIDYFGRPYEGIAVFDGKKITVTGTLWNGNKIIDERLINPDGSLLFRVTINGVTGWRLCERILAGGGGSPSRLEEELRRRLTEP

Test [4] has as its target T3, PYDC2-nanoluc-alfa-tag-fusion.
T3 chain: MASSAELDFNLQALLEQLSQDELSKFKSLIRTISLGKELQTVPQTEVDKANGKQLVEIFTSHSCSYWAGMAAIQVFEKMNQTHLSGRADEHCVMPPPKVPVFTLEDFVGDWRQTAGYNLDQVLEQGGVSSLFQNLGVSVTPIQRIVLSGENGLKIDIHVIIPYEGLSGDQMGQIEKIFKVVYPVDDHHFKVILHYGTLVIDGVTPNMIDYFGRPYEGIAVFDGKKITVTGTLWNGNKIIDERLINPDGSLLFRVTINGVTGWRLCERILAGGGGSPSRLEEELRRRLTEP

For test [5], the target named is T4, CSTB-nanoluc-alfa-tag-fusion.
T4 chain: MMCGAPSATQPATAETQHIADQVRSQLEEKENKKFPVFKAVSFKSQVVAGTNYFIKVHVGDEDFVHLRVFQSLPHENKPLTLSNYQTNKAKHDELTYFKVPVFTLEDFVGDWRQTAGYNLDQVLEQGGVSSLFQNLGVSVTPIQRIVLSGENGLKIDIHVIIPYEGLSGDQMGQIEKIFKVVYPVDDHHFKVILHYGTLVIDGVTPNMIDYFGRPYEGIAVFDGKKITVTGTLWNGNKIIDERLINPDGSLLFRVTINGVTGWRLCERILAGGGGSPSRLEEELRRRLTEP

B1: FireflyLuciferase-P2A-a_alfatag_nano-Cezanne (other)
chain: MEDAKNIKKGPAPFYPLEDGTAGEQLHKAMKRYALVPGTIAFTDAHIEVDITYAEYFEMSVRLAEAMKRYGLNTNHRIVVCSENSLQFFMPVLGALFIGVAVAPANDIYNERELLNSMGISQPTVVFVSKKGLQKILNVQKKLPIIQKIIIMDSKTDYQGFQSMYTFVTSHLPPGFNEYDFVPESFDRDKTIALIMNSSGSTGLPKGVALPHRTACVRFSHARDPIFGNQIIPDTAILSVVPFHHGFGMFTTLGYLICGFRVVLMYRFEEELFLRSLQDYKIQSALLVPTLFSFFAKSTLIDKYDLSNLHEIASGGAPLSKEVGEAVAKRFHLPGIRQGYGLTETTSAILITPEGDDKPGAVGKVVPFFEAKVVDLDTGKTLGVNQRGELCVRGPMIMSGYVNNPEATNALIDKDGWLHSGDIAYWDEDEHFFIVDRLKSLIKYKGYQVAPAELESILLQHPNIFDAGVAGLPDDDAGELPAAVVVLEHGKTMTEKEIVDYVASQVTTAKKLRGGVVFVDEVPKGLTGKLDARKIREILIKAKKGGKIAVTRLKGSGATNFSLLKQAGDVEENPGPRSGTGSSGEVQLQESGGGLVQPGGSLRLSCTASGVTISALNAMAMGWYRQAPGERRVMVAAVSERGNAMYRESVQGRFTVTRDFTNKMVSLQMDNLKPEDTAVYYCHVLEDRVDSFHDYWGQGTQVTVSSGAPGSGPPSFSEGSGGSRTPEKGFSDREPTRPPRPILQRQDDIVQEKRLSRGISHASSSIVSLARSHVSSNGGGGGSNEHPLEMPICAFQLPDLTVYNEDFRSFIERDLIEQSMLVALEQAGRLNWWVSVDPTSQRLLPLATTGDGNCLLHAASLGMWGFHDRDLMLRKALYALMEKGVEKEALKRRWRWQQTQQNKESGLVYTEDEWQKEWNELIKLASSEPRMHLGTNGANCGGVESSEEPVYESLEEFHVFVLAHVLRRPIVVVADTMLRDSGGEAFAPIPFGGIYLPLEVPASQCHRSPLVLAYDQAHFSALVSMEQKENTKEQAVIPLTDSEYKLLPLHFAVDPGKGWEWGKDDSDNVRLASVILSLEVKLHLLHSYMNVKWIPLSSDAQAPLAQ
Regarding B1, in test [1], the “fold increase in SHANK3 protein expression relative to the control (NLuc signal normalised to firefly luciferase signal)” value amounted to 2.4 fold. In addition, the “fold increase in PCBD1 protein expression (NLuc signal normalised to firefly luciferase signal)” value in test [2] was determined as 1.13 fold. Further, the “fold increase in SYNGAP1 protein expression relative to the control (NLuc signal normalised to firefly luciferase signal)” value in test [3] was 3.1 fold. The “fold increase in PYDC2 protein expression (NLuc signal normalised to firefly luciferase signal)” value in test [4] is 2.64 fold. Moreover, in test [5], the “fold increase in CSTB protein expression (NLuc signal normalised to firefly luciferase signal)” value is 1.61 fold.

The values are drawn from US20240025984A1 (FLUX THERAPEUTICS, published 2024).
